Patent US20170022268A1 (published 2017)
Where no end group is shown, it is not given here. [ ]: non-standard residue; d: D form. pGlu = O=C1CC[C@@H](C(=O)O)N1

T1: pyroglutamated human Aβ3-11 with the addition of a C-terminal cysteine residue, pE-FRHDSGYE-C (not fully specified)
T1 peptide: [pGlu]FRHDSGYEC


Legend:
[1] = molecular target: T1, pyroglutamated human Aβ3-11 with the …; assay: Biacore SPR; overall KD
[2] = molecular target: T1, pyroglutamated human Aβ3-11 with the …; assay: Biacore SPR; KD1 (first binding step)

| Binder | Kd [1] | Kd [2] |
| --- | --- | --- |
| monoclonal antibody 2E8 (antibody, V domains shown) VH: QIQLQQSGPDLVKPGASVKISCKASGYTFTDYYINWVKQKPGQGLEWIGWLNPGSGNTKYNEKFKGKATMTVDTTSSTVYMQLSSLTSEDSAVYFCTREGPIDYWGRGTSVTVSS VL: not shown | 64 nM | 3.46 nM |
| monoclonal antibody 5C9 (antibody, V domains shown) VH: QIQLQQSGPELVKPGAAVKISCKASGYTFTDYYLNWVKQKPGQGLEWIGWIYPGSGNVKYNEKFKGKATLTADTSSNTAHMQLSSLTSEDTAVYFCTREGLIVYWGQGTLVTVSA VL: DVVLTQTPFTLSVTIGQPASISCKSSQSLLHSNGESYLNWLFQRPGQSPKRLIYAVSKLDSGVPDRFTGSGSGTDFTLKISRVEAEDLGVYYCVQGTHFPFTFGGGTKLEIK | 8.2 nM | 0.116 nM |
